# Data: article PMC12430012
# Biological target: GST-α-synuclein, P37840
# Test: GST pull-down (glutathione agarose), western blot, ImageJ quantification
# Settings: chain shown with the change; E. coli lysates, in vitro; parent: est. 1.0; read off a plot
row,ratio to parent,Binder
1,0.8,"His6-DNAJB11 WT, Q9UBS4 T188A (protein) GRDFYKILGVPRSASIKDIKKAYRKLALQLHPDRNPDDPQAQEKFQDLGAAYEVLSDSEKRKQYDTYGEEGLKDGHQSSHGDIFSHFFGDFGFMFGGTPRQQDRNIPRGSDIIVDLEVTLEEVYAGNFVEVVRNKPVARQAPGKRKCNCRQEMRTTQLGPGRFQMAQEVVCDECPNVKLVNEERTLEVEIEPGVRDGMEYPFIGEGEPHVDGEPGDLRFRIKVVKHPIFERRGDDLYTNVTISLVESLVGFEMDITHLDGHKVHISRDKITRPGAKLWKKGEGLPNFDNNNIKGSLIITFDVDFPKEQLTEEAREGIKQLLKQGSVQKVYNGLQGY"
2,4.9,"His6-DNAJB11 WT, Q9UBS4 T188E (protein) GRDFYKILGVPRSASIKDIKKAYRKLALQLHPDRNPDDPQAQEKFQDLGAAYEVLSDSEKRKQYDTYGEEGLKDGHQSSHGDIFSHFFGDFGFMFGGTPRQQDRNIPRGSDIIVDLEVTLEEVYAGNFVEVVRNKPVARQAPGKRKCNCRQEMRTTQLGPGRFQMEQEVVCDECPNVKLVNEERTLEVEIEPGVRDGMEYPFIGEGEPHVDGEPGDLRFRIKVVKHPIFERRGDDLYTNVTISLVESLVGFEMDITHLDGHKVHISRDKITRPGAKLWKKGEGLPNFDNNNIKGSLIITFDVDFPKEQLTEEAREGIKQLLKQGSVQKVYNGLQGY"
